We go through 1 molecule from patent US20030124152A1.

The assay deals with Human collagen Type I (acid soluble) (human) (UniProt P02452). The experiment in a line: cell-based or functional assay.
Chain of UniProt P02452 (P02452 162-1218 limits assumed, chain 1 of 2): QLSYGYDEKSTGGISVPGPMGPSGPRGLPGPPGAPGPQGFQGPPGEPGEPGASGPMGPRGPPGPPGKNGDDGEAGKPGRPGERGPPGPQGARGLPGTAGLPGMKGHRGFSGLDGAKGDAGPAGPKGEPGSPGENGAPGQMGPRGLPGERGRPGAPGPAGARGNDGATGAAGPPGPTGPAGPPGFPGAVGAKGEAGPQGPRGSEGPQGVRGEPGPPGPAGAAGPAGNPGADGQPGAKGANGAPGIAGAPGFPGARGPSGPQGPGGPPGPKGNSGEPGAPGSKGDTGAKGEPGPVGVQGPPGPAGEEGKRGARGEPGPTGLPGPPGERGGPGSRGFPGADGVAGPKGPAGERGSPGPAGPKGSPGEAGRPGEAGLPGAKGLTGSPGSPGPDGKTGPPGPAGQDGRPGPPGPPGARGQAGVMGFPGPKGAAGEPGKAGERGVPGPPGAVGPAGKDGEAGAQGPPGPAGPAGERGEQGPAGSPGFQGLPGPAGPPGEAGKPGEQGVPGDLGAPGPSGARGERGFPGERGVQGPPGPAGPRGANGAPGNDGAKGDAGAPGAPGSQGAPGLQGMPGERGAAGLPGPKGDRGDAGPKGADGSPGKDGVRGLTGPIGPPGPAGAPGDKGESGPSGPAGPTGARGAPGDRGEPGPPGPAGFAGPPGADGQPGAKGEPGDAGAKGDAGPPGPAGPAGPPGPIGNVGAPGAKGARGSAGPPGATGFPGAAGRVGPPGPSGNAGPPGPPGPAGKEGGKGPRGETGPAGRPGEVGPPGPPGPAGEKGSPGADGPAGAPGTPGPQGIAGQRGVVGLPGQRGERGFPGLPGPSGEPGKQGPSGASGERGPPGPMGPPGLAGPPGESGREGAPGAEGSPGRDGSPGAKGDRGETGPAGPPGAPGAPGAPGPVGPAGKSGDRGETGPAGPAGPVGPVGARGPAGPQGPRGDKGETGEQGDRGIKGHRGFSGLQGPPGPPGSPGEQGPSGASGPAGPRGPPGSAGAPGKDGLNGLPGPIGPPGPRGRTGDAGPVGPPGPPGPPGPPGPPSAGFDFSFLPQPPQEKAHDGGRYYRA
Chain of UniProt P02452 (P08123 80-1119 limits assumed, chain 2 of 2, further chain): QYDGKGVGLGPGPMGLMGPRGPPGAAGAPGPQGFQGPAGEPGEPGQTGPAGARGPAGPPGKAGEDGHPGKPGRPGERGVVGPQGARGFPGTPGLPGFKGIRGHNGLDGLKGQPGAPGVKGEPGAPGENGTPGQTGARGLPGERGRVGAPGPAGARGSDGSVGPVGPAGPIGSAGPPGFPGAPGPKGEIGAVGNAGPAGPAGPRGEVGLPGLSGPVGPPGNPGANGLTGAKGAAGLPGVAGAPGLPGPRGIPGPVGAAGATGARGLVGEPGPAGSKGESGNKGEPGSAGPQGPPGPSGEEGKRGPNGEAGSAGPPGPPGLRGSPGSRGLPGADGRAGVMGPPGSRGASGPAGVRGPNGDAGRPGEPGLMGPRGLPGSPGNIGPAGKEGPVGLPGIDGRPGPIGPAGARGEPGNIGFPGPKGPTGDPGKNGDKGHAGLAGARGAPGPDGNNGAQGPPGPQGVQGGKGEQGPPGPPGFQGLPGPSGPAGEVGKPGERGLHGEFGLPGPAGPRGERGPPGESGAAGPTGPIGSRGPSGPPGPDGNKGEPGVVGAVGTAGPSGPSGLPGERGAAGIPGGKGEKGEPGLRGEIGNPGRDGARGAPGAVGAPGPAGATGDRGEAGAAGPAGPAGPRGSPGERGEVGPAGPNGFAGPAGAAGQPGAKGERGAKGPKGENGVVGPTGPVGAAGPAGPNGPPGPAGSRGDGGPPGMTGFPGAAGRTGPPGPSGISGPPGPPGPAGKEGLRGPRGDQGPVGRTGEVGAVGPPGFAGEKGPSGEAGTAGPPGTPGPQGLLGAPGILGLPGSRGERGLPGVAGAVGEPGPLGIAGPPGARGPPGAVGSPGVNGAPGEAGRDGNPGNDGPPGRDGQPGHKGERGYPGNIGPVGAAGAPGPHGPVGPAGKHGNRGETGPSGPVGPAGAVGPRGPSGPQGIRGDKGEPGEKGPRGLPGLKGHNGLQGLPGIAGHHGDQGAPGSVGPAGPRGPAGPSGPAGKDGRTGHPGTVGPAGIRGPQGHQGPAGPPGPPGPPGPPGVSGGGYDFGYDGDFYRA

B1: human decorin core protein (HDCP) (protein)
chain: VEASGIGPEVPDDRDFEPSLGPVCPFRCQCHLRVVQCSDLGLDKVPKDLPPDTTLLDLQNNKITEIKDGDFKNLKNLHALILVNNKISKVSPGAFTPLVKLERLYLSKNQLKELPEKMPKTLQELRAHENEITKVRKVTFNGLNQMIVIELGTNPLKSSGIENGAFQGMKKLSYIRIADTNITSIPQGLPPSLTELHLDGNKISRVDAASLKGLNNLAKLGLSFNSISAVDNGSLANTPHLRELHLDNNKLTRVPGGLAEHKYIQVVYLHNNNISVVGSSDFCPPGHNTKKASYSGVSLFSNPVQYWEIQPSTFRCVYVRSAIQLGNYK
modifications: possible initiator Met
For B1, the Collagen Protection Assay, collagen band density, C + D + Z, 0 min (optical density/mm^2) was 10.4; the Collagen Protection Assay, collagen band density, C + D + Z, 30 min (optical density/mm^2) came to 9.37; the Collagen Protection Assay, collagen band density, C + D + Z, 60 min (optical density/mm^2) was 5.89; the Collagen Protection Assay, collagen band density, C + D + Z, 90 min (optical density/mm^2) amounted to 1.67. The Collagen Type I Degradation Rate (%), C + D + Z, 30 min was found to be 9.49%; the Collagen Type I Degradation Rate (%), C + D + Z, 60 min was 37.1%; the Collagen Type I Degradation Rate (%), C + D + Z, 90 min turned out to be 71.6%.
